Measured values from patent US12448430B2 (dated 2025).

T1: Wilms tumor protein 1 (WT1) peptide on HLA-A*02:01 (human)
T1 peptide: VLDFAPPGA

B1: WT137-45 TCR10.1 (TCR, V domains shown)
Valpha: KQEVTQIPAALSVPEGENLVLNCSFTDSAIYNLQWFRQDPGKGLTSLLLIQSSQREQTSGRLNASLDKSSGRSTLYIAASQPGDSATYLCAVKETSGSRLTFGEGTQLTVNP
Vbeta: GAGVSQSPRYKVTKRGQDVALRCDPISGHVSLYWYRQALGQGPEFLTYFNYEAQQDKSGLPNDRFSAERPEGSISTLTIQRTEQRDSAMYRCASSLTGSYEQYFGPGTRLTVT
B2: WT137-45 TCR15.1 (TCR, V domains shown)
Valpha: GQNIDQPTEMTATEGAIVQINCTYQTSGFNGLFWYQQHAGEAPTFLSYNVLDGLEEKGRFSSFLSRSKGYSYLLLKELQMKDSASYLCAVRGINDYKLSFGAGTTVTVRA
Vbeta: DGGITQSPKYLFRKEGQNVTLSCEQNLNHDAMYWYRQDPGQGLRLIYYSQIVNDFQKGDIAEGYSVSREKKESFPLTVTSAQKNPTAFYLCASSRDREQESPLHFGNGTRLTVT

What was measured:
[1] = target: T1, Wilms tumor protein 1 (WT1) peptide on …; test: multimer staining
[2] = target: T1, Wilms tumor protein 1 (WT1) peptide on …; test: killing

Binder	binding result [1]	binding result [2]
B1	recognises	–
B2	–	recognises
